Measurements from publication PMC2865556 (Integrative biology : quantitative biosciences from nano to …, 2009).

Molecular target: full-length t-SNARE heterodimer (syntaxin 1A and SNAP-25) (UniProt P32851 1-288; P60879 1-206)
Assay: AFM single-molecule force spectroscopy

Chain of full-length t-SNARE heterodimer (syntaxin 1A and SNAP-25) (P32851 whole entry, chain 1 of 2): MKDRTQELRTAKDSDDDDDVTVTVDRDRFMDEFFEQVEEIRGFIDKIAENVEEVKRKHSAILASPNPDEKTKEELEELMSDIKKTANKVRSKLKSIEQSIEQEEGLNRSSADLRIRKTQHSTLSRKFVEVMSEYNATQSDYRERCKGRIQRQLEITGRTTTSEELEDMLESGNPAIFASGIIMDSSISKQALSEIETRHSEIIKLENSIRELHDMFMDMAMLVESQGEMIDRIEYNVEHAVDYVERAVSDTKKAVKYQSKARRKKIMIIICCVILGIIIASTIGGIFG
Chain of full-length t-SNARE heterodimer (syntaxin 1A and SNAP-25) (P60879 whole entry, chain 2 of 2): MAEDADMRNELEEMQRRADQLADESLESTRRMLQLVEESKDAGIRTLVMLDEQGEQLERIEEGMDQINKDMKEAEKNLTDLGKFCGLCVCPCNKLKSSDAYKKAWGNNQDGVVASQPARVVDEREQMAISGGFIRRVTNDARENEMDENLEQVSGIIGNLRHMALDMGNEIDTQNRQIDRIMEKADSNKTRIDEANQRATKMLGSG

B1: VAMP 2 in v-SNARE bilayers after cleavage by BoNT/B (remaining membrane-anchored portion) (domain or fragment)
chain: FETSAAKLKRKYWWKNLKMMIILGVICAIILIIIIVYFST
- dissociation rate of the inner barrier (kβ1^o): 20.1 s⁻¹
- dissociation rate of the outer barrier (kβ2^o): 0.46 s⁻¹
